Test results as given in US20140302063A1 (SECRETARY OF STATE FOR HEALTH, published 2014).
Numbering of substitutions follows the chain as printed.

B1: R2b-D9 (VHH)
VHH: QVQLVESGGGLVQPGGSLRLSCLASGSAFSLYTMGWYRQAPGNQRELVAAITSGESTNYADSVKGRFTISRDNAKNTVYLQMNSLKPEDTAVYYCNADPLSTGWGQYSYWGQGTQVTVSS
B2: R1a-H6 (VHH)
VHH: QVQLVESGGGLVQAGDSLRLSCTASVLTFSLYRVGWFRQAPGKEREFVAAIDWGDGPTTYADSVKGRFTISRDNAERTAYLQINSLKPEDTAVYYCGAGNTGSSDRSSSYVHWGQGTQVTVSS
B3: R1a-E5 (VHH)
VHH: QLQLVESGGGLVQPGGSLRLSCTASGFSLDNYAIGWFRRAPGEEREGVSFITSTSAVTKYADSVKGRFTISRDNAKNTVYLQMTSLKPEDTAVYYCAGTRWVPTMKADEYNYWGQGTQVTVSS
B4: R1a-F5 (VHH)
VHH: QLQLVESGGGLVQVGGSLRLSCAASGFPFDGYAIAWFRQAPGKEREGVSCRASDGNTYYAESLKGRLTMSTDNAKNTVYLQMNSLKPEDTAVYYCAAASWVASLWSPSEYDYWGQGTQVTVSS
B5: R1a-C5 (VHH)
VHH: QVQLVESGGGLVQPGGSLRLSCAASNDIFSFYTMGWYLQAIGKQREPVAVIGNGGNTNYAESVKGRFTISRDGAKNTAYLQMNSLKPEDTAVYYCMASGPGGLNVWGQGTQVTVSS
B6: R1a-E6 (VHH)
VHH: QVQLVESGGGLVQPGGSLRLSCAASGFTLGAYAIAWFRQAPGKEREGVSCISPSDSFTEYGDSVKGRFTVSRDNAKNTVYLQMNSLQPEDTAVYYCAADPVCTAGWYRPSRFDLWGQGTQVTVSS
B7: R2b-E8 (VHH)
VHH: QVQLVESGGGLVQPGGSLRLSCAASGSFFSRYRMGWYRQAPGEQRELVAGITYDDSTNYAGSVKGRFTISRDNAKNTVHLQMNSLKPEDTAVYYCNLNPPGNLYWGQGTQVTVSS
B8: R1a-G6 (VHH)
VHH: QVQLVESGGGLVQSGGSLRLSCAASGSMSRIITMGWYRQAPGMERELVAVIGNNDNTVYGDSVQGRFTVSRDNAKNTAYLQMNSLNAEDTAMYYCKISTLTPPHEYWGQGTQVTVSS
B9: R1a-B6 (VHH)
VHH: QVQLVESGGGLVQPGGSLRLSCAASGSFFSRYRMGWYRQAPGEQRELVASIAYDGSTSYADPVKGRFTISRDNANTVHLQMYSLKPDDTAVYYCNLDPPGILYWGQGTQVTVSS
B10: R2a-G9 (VHH)
VHH: QVQLVESGGGLVQPGGSLRLSCAASDNIFSFYTMGWYRQSPGKERELVAVIGNGGNTNYADSVKGRFTISRDNGKNKAHLQMNSLKPEDTAVYYCKASGPGGVEVWGQGTQVTVSS
B11: R1a-A5 (VHH)
VHH: QVQLVESGGGLVQPGGSLRLSCSASGSAVLFSTYPMSWYRQAPGKQRELVAAVTTDGSTSYADYAKGRFTISRDNAKNTVYLQMNSLKPEDTAVYYCNARDGFFNRYDYWGQGTQVTVSS
B12: R2a-G8 (VHH)
VHH: QLQLAESGGGLVQAGGSLRLSCAASGSTLNNNAIGWFRQAPGKEREGVSCMNSRDGTTNYADSVKGRFTISRDVAKNTVYLQMNSLKPEDTAVYFCAVKGFAPFLIGCPWGKAEYDYWGQGTQVTVSS
B13: R2a-F9 (VHH)
VHH: QVQLVESGGGLVQPGGSLRLSCSASGSISSIVTMGWYRQAPGKERELVAVIGNYGNTNYADSVKGRFTVSRDNAKNTVYLQMNSLNVEDTAMYVCKFSSTVAPHEYWGQGTQVTVSS
B14: R2a-H9 (VHH)
VHH: QVQLVESGGGLVQPGGSLRLSCAASTNIASFYTMGWYRQTPGQQRDVVAVIGNGGNTNYADSVKGRFTISRDGAKNTAHLQMNSLKPEDTDVYYCKASGPGGVILWGQGTQVTVSS
B15: R1a-G5 (VHH)
VHH: QLQLVESGGGLVQPGGSLRLSCAASGSISRIVTMGWYRQASGKERELVAVIGNYGNTNYADSVKGRFTVSRDNAKDTAYLQMNGLNVEDTAIYYCKTSTTTPPYEYWGQGTQVTVSS
B16: R1a-F4 (VHH)
VHH: B15 VHH with L2V, A40G, S41P, G84N, I92M, T97C, Y104H, Y106F
B17: R2a-E8 (VHH)
VHH: QLQLVESGGGLVQPGGSLRLSCTASGDIFVMYMIDWYRQAPGKQRELVASIDGRGTPMYADSVKGRFTISRDNAKNTVYLQMNSLKPEDTAVYSCHAKSPLVDNEYWGQGTQVTVSS
B18: R2a-B9 (VHH)
VHH: QVQLVESGGGLVQPGGSLRLSCAASGSAFSINAMGWYRQAPGEEREFVAAITAGGNTYYADSAKARFTISRDNAKNMLYLQMNSLKPEDTAMYYCAATKAFGIATITADYELWGQGTQVTVSS
B19: R2b-D8 (VHH)
VHH: QVQLVESGGGLVQPGGSLRLSCAASGFTFSWYDVGWYRRAPGKERELVADIASTRGTTNYADSVKGRFTISRDNAKNSVYLQMNSLKPEDTAVYYCNTRRDWRDYWGQGIQVTVSS

biological target: A/California/7/2009 (H1N1) inactivated viral preparation (Influenza A virus A/California/7/2009 (H1N1)); test: ELISA, inactivated virus

Row | Binder | EC50 [µg/mL]
1 | B1 | 0.9
2 | B2 | 3.85
3 | B3 | 3.23
4 | B4 | 0.55
5 | B5 | 1.71
6 | B6 | 2.46
7 | B7 | 3.64
8 | B8 | 0.3
9 | B9 | 0.39
10 | B10 | 0.3
11 | B11 | 0.31
12 | B12 | 4.11
13 | B13 | 0.19
14 | B14 | 0.97
15 | B15 | 1.73
16 | B16 | 0.79
17 | B17 | 0.51
18 | B18 | 1

biological target: A/Brisbane/59/2007 (H1N1-like) inactivated viral preparation (Influenza A virus A/Brisbane/59/2007 (H1N1-like)); test: ELISA, inactivated virus

Row | Binder | EC50 [µg/mL]
19 | B1 | 0.8
20 | B4 | 0.7
21 | B5 | 3.3
22 | B7 | 18.4
23 | B9 | 0.58
24 | B19 | 14.8
25 | B11 | 0.38
26 | B12 | 1.86
27 | B15 | 0.29
28 | B17 | 1.42
29 | B18 | 9.84
